# Measurements as given in the supplement of paper PMC11316812.
# ± gives the standard deviation of the averaged measurements.
# Experiments:
# hTERT-HMEC = experiment: percentage of EdU-negative (G0-arrested) nuclei per well, 72 h; higher = more G0 arrest; conditions: reference: sequence is the full UniProt precursor, the tested protein was the secreted form or ectodomain
# MCF7 = experiment: as above; conditions: reference: sequence is the full UniProt precursor, the tested protein was the secreted form or ectodomain
# [1] = protein concentration 0.0125714 µM
# [2] = protein concentration 0.125714 µM
# [3] = protein concentration 0.00771429 µM
# [4] = protein concentration 0.0771429 µM
# [5] = protein concentration 0.0225 µM
# [6] = protein concentration 0.016015 µM
# [7] = protein concentration 0.16015 µM
# [8] = protein concentration 0.022125 µM
# [9] = protein concentration 0.22125 µM
# 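Also: secreted proteins added to cultured cells, EdU pulse at the end, nuclei found by Hoechst imaging, EdU status from nuclear versus surrounding ring intensity ratio, PBS as neutral control.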
sequence,measurement,setting,value
MRENMARGPCNAPRWASLMVLVAIGTAVTAAVNPGVVVRISQKGLDYASQQGTAALQKELKRIKIPDYSDSFKIKHLGKGHYSFYSMDIREFQLPSSQISMVPNVGLKFSISNANIKISGKWKAQKRFLKMSGNFDLSIEGMSISADLKLGSNPTSGKPTITCSSCSSHINSVHVHISKSKVGWLIQLFHKKIESALRNKMNSQVCEKVTNSVSSELQPYFQTLPVMTKIDSVAGINYGLVAPPATTAETLDVQMKGEFYSENHHNPPPFAPPVMEFPAAHDRMVYLGLSDYFFNTAGLVYQEAGVLKMTLRDDMIPKESKFRLTTKFFGTFLPEVAKKFPNMKIQIHVSASTPPHLSVQPTGLTFYPAVDVQAFAVLPNSSLASLFLIGMHTTGSMEVSAESNRLVGELKLDRLLLELKHSNIGPFPVELLQDIMNYIVPILVLPRVNEKLQKGFPLPTPARVQLYNVVLQPHQNFLLFGADVVYK,percentage of EdU-negative,hTERT-HMEC; [1],6.02 ± 1.5%
same,percentage of EdU-negative,hTERT-HMEC; [2],35.1 ± 4%
same,percentage of EdU-negative,MCF7; [1],24.5 ± 2.8%
same,percentage of EdU-negative,MCF7; [2],29.1 ± 5%
MALDYLLLLLLASAVAAMEETLMDTRTATAELGWTANPASGWEEVSGYDENLNTIRTYQVCNVFEPNQNNWLLTTFINRRGAHRIYTEMRFTVRDCSSLPNVPGSCKETFNLYYYETDSVIATKKSAFWSEAPYLKVDTIAADESFSQVDFGGRLMKVNTEVRSFGPLTRNGFYLAFQDYGACMSLLSVRVFFKKCPSIVQNFAVFPETMTGAESTSLVIARGTCIPNAEEVDVPIKLYCNGDGEWMVPIGRCTCKPGYEPENSVACKACPAGTFKASQEAEGCSHCPSNSRSPAEASPICTCRTGYYRADFDPPEVACTSVPSGPRNVISIVNETSIILEWHPPRETGGRDDVTYNIICKKCRADRRSCSRCDDNVEFVPRQLGLTECRVSISSLWAHTPYTFDIQAINGVSSKSPFPPQHVSVNITTNQAAPSTVPIMHQVSATMRSITLSWPQPEQPNGIILDYEIRYYEKEHNEFNSSMARSQTNTARIDGLRPGMVYVVQVRARTVAGYGKFSGKMCFQTLTDDDYKSELREQLPLIAGSAAAGVVFVVSLVAISIVCSRKRAYSKEAVYSDKLQHYSTGRGSPGMKIYIDPFTYEDPNEAVREFAKEIDVSFVKIEEVIGAGEFGEVYKGRLKLPGKREIYVAIKTLKAGYSEKQRRDFLSEASIMGQFDHPNIIRLEGVVTKSRPVMIITEFMENGALDSFLRQNDGQFTVIQLVGMLRGIAAGMKYLAEMNYVHRDLAARNILVNSNLVCKVSDFGLSRYLQDDTSDPTYTSSLGGKIPVRWTAPEAIAYRKFTSASDVWSYGIVMWEVMSFGERPYWDMSNQDVINAIEQDYRLPPPMDCPAALHQLMLDCWQKDRNSRPRFAEIVNTLDKMIRNPASLKTVATITAVPSQPLLDRSIPDFTAFTTVDDWLSAIKMVQYRDSFLTAGFTSLQLVTQMTSEDLLRIGITLAGHQKKILNSIHSMRVQISQSPTAMA,percentage of EdU-negative,hTERT-HMEC; [3],4.82 ± 0.12%
same,percentage of EdU-negative,hTERT-HMEC; [4],5.86 ± 0.98%
same,percentage of EdU-negative,MCF7; [3],26.7 ± 1.5%
same,percentage of EdU-negative,MCF7; [4],23.4 ± 1.5%
MRPLLCALTGLALLRAAGSLAAAEPFSPPRGDSAQSTACDRHMAVQRRLDVMEEMVEKTVDHLGTEVKGLLGLLEELAWNLPPGPFSPAPDLLGDGF [Q5JTB6],percentage of EdU-negative,hTERT-HMEC; [5],4.3 ± 0.46%
same,percentage of EdU-negative,hTERT-HMEC; protein concentration 0.225 µM,5.25 ± 0.17%
same,percentage of EdU-negative,MCF7; [5],28.1 ± 2.1%
same,percentage of EdU-negative,MCF7; protein concentration 0.225 µM,26 ± 1.2%
MKVLLRLICFIALLISSLEADKCKEREEKIILVSSANEIDVRPCPLNPNEHKGTITWYKDDSKTPVSTEQASRIHQHKEKLWFVPAKVEDSGHYYCVVRNSSYCLRIKISAKFVENEPNLCYNAQAIFKQKLPVAGDGGLVCPYMEFFKNENNELPKLQWYKDCKPLLLDNIHFSGVKDRLIVMNVAEKHRGNYTCHASYTYLGKQYPITRVIEFITLEENKPTRPVIVSPANETMEVDLGSQIQLICNVTGQLSDIAYWKWNGSVIDEDDPVLGEDYYSVENPANKRRSTLITVLNISEIESRFYKHPFTCFAKNTHGIDAAYIQLIYPVTNFQKHMIGICVTLTVIIVCSVFIYKIFKIDIVLWYRDSCYDFLPIKASDGKTYDAYILYPKTVGEGSTSDCDIFVFKVLPEVLEKQCGYKLFIYGRDDYVGEDIVEVINENVKKSRRLIIILVRETSGFSWLGGSSEEQIAMYNALVQDGIKVVLLELEKIQDYEKMPESIKFIKQKHGAIRWSGDFTQGPQSAKTRFWKNVRYHMPVQRRSPSSKHQLLSPATKEKLQREAHVPLG,percentage of EdU-negative,hTERT-HMEC; [6],4.76 ± 0.26%
same,percentage of EdU-negative,hTERT-HMEC; [7],5.92 ± 0.43%
same,percentage of EdU-negative,MCF7; [6],25.8 ± 1.6%
same,percentage of EdU-negative,MCF7; [7],26.2 ± 0.51%
MSGGHQLQLAALWPWLLMATLQAGFGRTGLVLAAAVESERSAEQKAIIRVIPLKMDPTGKLNLTLEGVFAGVAEITPAEGKLMQSHPLYLCNASDDDNLEPGFISIVKLESPRRAPRPCLSLASKARMAGERGASAVLFDITEDRAAAEQLQQPLGLTWPVVLIWGNDAEKLMEFVYKNQKAHVRIELKEPPAWPDYDVWILMTVVGTIFVIILASVLRIRCRPRHSRPDPLQQRTAWAISQLATRRYQASCRQARGEWPDSGSSCSSAPVCAICLEEFSEGQELRVISCLHEFHRNCVDPWLHQHRTCPLCMFNITEGDSFSQSLGPSRSYQEPGRRLHLIRQHPGHAHYHLPAAYLLGPSRSAVARPPRPGPFLPSQEPGMGPRHHRFPRAAHPRAPGEQQRLAGAQHPYAQGWGLSHLQSTSQHPAACPVPLRRARPPDSSGSGESYCTERSGYLADGPASDSSSGPCHGSSSDSVVNCTDISLQGVHGSSSTFCSSLSSDFDPLVYCSPKGDPQRVDMQPSVTSRPRSLDSVVPTGETQVSSHVHYHRHRHHHYKKRFQWHGRKPGPETGVPQSRPPIPRTQPQPEPPSPDQQVTRSNSAAPSGRLSNPQCPRALPEPAPGPVDASSICPSTSSLFNLQKSSLSARHPQRKRRGGPSEPTPGSRPQDATVHPACQIFPHYTPSVAYPWSPEAHPLICGPPGLDKRLLPETPGPCYSNSQPVWLCLTPRQPLEPHPPGEGPSEWSSDTAEGRPCPYPHCQVLSAQPGSEEELEELCEQAV [Q68DV7],percentage of EdU-negative,hTERT-HMEC; protein concentration 0.032 µM,4.69 ± 0.58%
same,percentage of EdU-negative,hTERT-HMEC; protein concentration 0.32 µM,4.96 ± 0.2%
same,percentage of EdU-negative,MCF7; protein concentration 0.032 µM,24.9 ± 1%
same,percentage of EdU-negative,MCF7; protein concentration 0.32 µM,23.5 ± 1.3%
MDMWTALLILQALLLPSLADGATPALRFVAVGDWGGVPNAPFHTAREMANAKEIARTVQILGADFILSLGDNFYFTGVQDINDKRFQETFEDVFSDRSLRKVPWYVLAGNHDHLGNVSAQIAYSKISKRWNFPSPFYRLHFKIPQTNVSVAIFMLDTVTLCGNSDDFLSQQPERPRDVKLARTQLSWLKKQLAAAREDYVLVAGHYPVWSIAEHGPTHCLVKQLRPLLATYGVTAYLCGHDHNLQYLQDENGVGYVLSGAGNFMDPSKRHQRKVPNGYLRFHYGTEDSLGGFAYVEISSKEMTVTYIEASGKSLFKTRLPRRARP,percentage of EdU-negative,hTERT-HMEC; [8],4.67 ± 0.33%
same,percentage of EdU-negative,hTERT-HMEC; [9],8.42 ± 0.15%
same,percentage of EdU-negative,MCF7; [8],24.4 ± 1.2%
same,percentage of EdU-negative,MCF7; [9],28.4 ± 1.4%
